The values that follow come from paper PMC11770335, “Transcriptome-scale analysis uncovers conserved residues in the hydrophobic core of the bacterial RNA chaperone Hfq required for small regulatory RNA stability”.

Common to all, as to settings: protein: recombinant; chain copies: 6; single strand
The target in series [1] is T1, Hfq V22A (Escherichia coli, UniProt P0A6X3 1-102, V22A). Put plainly: X-ray crystallography; one pA4 traced at distal face (Methods says proximal); 0.2 M LiSO4, 0.05 M zinc acetate, Bis-Tris pH 7.5; ITC: 20 mM Tris-HCl pH 7.5, 100 mM NaCl, 20 mM KCl, 30°C; plus 5 mM MgCl2 for U6; Hfq hexamer 10-18 µM in cell.
In series [2] the target is T1, Hfq V22A. Put plainly: ITC; 5 mM MgCl2; N 1.02 RNA/hexamer; second weaker event offset; ITC: 20 mM Tris-HCl pH 7.5, 100 mM NaCl, 20 mM KCl, 30°C; plus 5 mM MgCl2 for U6; Hfq hexamer 10-18 µM in cell.
Series [3] concerns the target T2, Hfq G34A (Escherichia coli, UniProt P0A6X3 1-102, G34A). Put plainly: ITC; 5 mM MgCl2; N 0.83 RNA/hexamer; second weaker event offset; ITC: 20 mM Tris-HCl pH 7.5, 100 mM NaCl, 20 mM KCl, 30°C; plus 5 mM MgCl2 for U6; Hfq hexamer 10-18 µM in cell. A general note: In ITC the heat of successive injections is recorded.
In series [4] the target is T3, Hfq WT (Escherichia coli, UniProt P0A6X3 1-102). Put plainly: ITC; 5 mM MgCl2; N 0.96 RNA/hexamer; second weaker event offset; ITC: 20 mM Tris-HCl pH 7.5, 100 mM NaCl, 20 mM KCl, 30°C; plus 5 mM MgCl2 for U6; Hfq hexamer 10-18 µM in cell.
In series [5] the target is T3, Hfq WT. Put plainly: ITC; no Mg2+ listed; N 1.31 RNA/hexamer; ITC: 20 mM Tris-HCl pH 7.5, 100 mM NaCl, 20 mM KCl, 30°C; plus 5 mM MgCl2 for U6; Hfq hexamer 10-18 µM in cell.
For series [6], the target named is T2, Hfq G34A. Put plainly: ITC; no Mg2+ listed; N 0.75 RNA/hexamer; ITC: 20 mM Tris-HCl pH 7.5, 100 mM NaCl, 20 mM KCl, 30°C; plus 5 mM MgCl2 for U6; Hfq hexamer 10-18 µM in cell.
Series [7] has as its target T1, Hfq V22A. Put plainly: ITC; no Mg2+ listed; N 1.43 RNA/hexamer; ITC: 20 mM Tris-HCl pH 7.5, 100 mM NaCl, 20 mM KCl, 30°C; plus 5 mM MgCl2 for U6; Hfq hexamer 10-18 µM in cell.

For AAAA (ssRNA) [pA4], the binding result with Hfq V22A [1] was “binds”.

The term Kd denotes the constant that tells how readily two partners part at equilibrium. On to UUUUUU (ssRNA) [U6], for which the figures for the dissociation constant Kd in the series with Hfq V22A [2], with Hfq G34A [3] and with Hfq WT [4] were 56.6 ± 7.5 nM, 19.3 ± 8.3 nM and 42.2 ± 12.8 nM, respectively.

Consider AAAAAAAAAAAAAAAAA (ssRNA) [A17], for which the equilibrium dissociation constant (Kd) with Hfq WT [5] was determined as 51.5 ± 18 nM; with Hfq G34A [6], 26.3 ± 13.2 nM; with Hfq V22A [7], 10.5 ± 3.4 nM.
